In experiment [1] the target is T1, Recombinant human Dkk-1 (R&D Systems cat no. 1096-DK/CF), 10xHis tag at the C terminal (human, UniProt O94907 32-266).
T1 construct: the actual N-terminus of the purified protein is marked in bold italic after residue 30, but the mark is an image lost in the text; also called rhuDkk-1; hDkk-1
T1 sequence: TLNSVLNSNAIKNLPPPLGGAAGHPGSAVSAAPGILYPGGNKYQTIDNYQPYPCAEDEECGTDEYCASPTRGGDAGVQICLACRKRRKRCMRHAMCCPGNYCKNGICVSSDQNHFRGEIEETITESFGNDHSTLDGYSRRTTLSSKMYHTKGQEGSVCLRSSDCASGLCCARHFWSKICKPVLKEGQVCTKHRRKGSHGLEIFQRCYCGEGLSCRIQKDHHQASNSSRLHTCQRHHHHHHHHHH
The experiment is described as follows: ELISA, plate coated with human DKK-1 at 1.0 ug/ml, JC18 titrated, OD read. The method, then: (§1) Dkk-1 specific antibodies were detected using the following ELISA based method. rhuDkk-1 protein (R&D systems cat no. 1096 DK/CF) was diluted to 1 ug/ml in coating buffer (Sigma carbonate/bicarbonate coating buffer pH 9.6 Cat No. C-3041 made up according to manufacturers instructions). 100 uls of Dkk-1 was added per well to Nunc Maxisorp 96 well plates and incubated overnight at 4° C. Wells were washed 4× with 250 uls/well of wash buffer (0.05% (v/v) Tween-20 (Sigma Cat no. P2287) in dPBS without Ca/Mg++ (Sigma Cat No. D8537)) then blocked with 200 uls/well of blocking buffer (1% PVA (Sigma cat no. 363170) (weight/volume) in dPBS (Sigma cat no.D8537)) for 2 hrs at room temperature. Blocking buffer was then removed by rapid decanting. Antibodies were diluted by consecutive 2-fold serial dilutions in blocking buffer and applied to each plate at 100 ul per well. Plates were incubated for 1 hour at RT and then washed as described above.
(§2) Binding of the test antibody to Dkk was determined by addition of a secondary antibody specific for the antibody species. […] Once developed, the plate absorbance was measured at 405 and 490 nm. Absorbance values were presented as the difference between absorbance at both wavelengths.
A general note: ELISA stands for enzyme-linked immunosorbent assay.

For experiment [2], the target named is T2, recombinant mouse Dkk-2 (R&D systems Cat No. 2435-DK/CF) (mouse, UniProt Q9QYZ8 34-259, limits assumed).
T2 construct: Bought; also called mDkk-2
T2 sequence (looked up): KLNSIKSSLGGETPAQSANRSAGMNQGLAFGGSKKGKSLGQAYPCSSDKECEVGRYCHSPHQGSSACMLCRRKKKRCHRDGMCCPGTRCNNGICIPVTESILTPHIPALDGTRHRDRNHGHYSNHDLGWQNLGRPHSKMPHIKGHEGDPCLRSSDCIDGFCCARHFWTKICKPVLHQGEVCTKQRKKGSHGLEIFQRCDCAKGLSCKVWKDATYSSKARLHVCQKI
Briefly: ELISA, plate-coated antigen. The method, then: as §1, with “Antibodies were diluted by consecutive 2-fold serial dilutions in blocking buffer and applied to each plate at 100 ul per well. Plates were incubated for 1 hour at RT and then washed as described above.” left out
as §2
The ability of JC18 to bind to other species Dkk proteins was assessed using the ELISA protocol described above with the exception that plates were also coated with recombinant rat Dkk-1(R&D systems Cat No. 4010-DK/CF), mouse Dkk-1 (R&D systems Cat No. 1765-DK/CF), mouse Dkk-2 (R&D systems Cat No. 2435-DK/CF), and mouse Dkk-4 (R&D systems Cat No. 3105-DK/CF).

Experiment [3] has as its target T3, recombinant human Dkk3 (R&D systems Cat No. 1118-DK/CF) (human, UniProt Q9UBP4 22-350).
T3 construct: Bought; also called hDkk-3
Briefly: ELISA, plate coated with human DKK-3 at 1.0 ug/ml, JC18 titrated, OD read.

In experiment [4] the target is T1, Recombinant human Dkk-1 (R&D Systems …). The experiment is described as follows: SPR BIAcore 25C, JC18 captured by anti-mouse IgG, Dkk-1 injected. The method, then: (§3) For this assay, polyclonal anti-mouse IgG was amine-coupled to the BIAcore chip. Anti-Dkk-1 antibody JC18 is at 6.53 μg/ml, and was captured for 1 min at 5 μl/min. A five-fold series dilution of human, mouse or rat Dkk-1 (R&D Systems; from 0.4-250 nM) was injected for 1 min at 50-100 μl/min. Dissociation was monitored for 3-5 min. The chip was regenerated with two 30-sec pulses of 100 mM H₃PO₄.

In experiment [5] the target is T4, recombinant mouse Dkk-1 (R&D systems Cat No. 1765-DK/CF) (mouse, UniProt O54908 32-272).
T4 construct: Bought
T4 sequence (looked up): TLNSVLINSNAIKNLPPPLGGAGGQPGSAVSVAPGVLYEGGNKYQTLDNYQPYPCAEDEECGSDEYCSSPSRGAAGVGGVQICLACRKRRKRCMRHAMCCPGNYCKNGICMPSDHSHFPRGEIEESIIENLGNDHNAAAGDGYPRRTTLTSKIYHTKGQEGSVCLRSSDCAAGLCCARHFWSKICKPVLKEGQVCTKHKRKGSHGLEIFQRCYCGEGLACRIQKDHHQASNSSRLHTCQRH
The experiment is described as above. As for the experimental part:
as §3

Experiment [6] addresses T5, recombinant rat Dkk-1 (R&D systems Cat No. 4010-DK/CF) (rat).
T5 construct: Bought
Described as above. As for the experimental part: as §3

T3 sequence (Q9UBP4 22-350 limits assumed): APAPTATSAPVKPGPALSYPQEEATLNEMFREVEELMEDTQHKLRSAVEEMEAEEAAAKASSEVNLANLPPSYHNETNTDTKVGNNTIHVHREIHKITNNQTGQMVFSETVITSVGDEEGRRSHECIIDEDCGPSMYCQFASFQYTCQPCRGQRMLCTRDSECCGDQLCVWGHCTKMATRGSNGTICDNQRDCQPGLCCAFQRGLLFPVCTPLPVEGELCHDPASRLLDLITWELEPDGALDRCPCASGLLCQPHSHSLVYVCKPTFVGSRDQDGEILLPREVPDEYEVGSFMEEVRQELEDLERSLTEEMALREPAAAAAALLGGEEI

B1: JC18 wildtype (mouse) monoclonal antibody (antibody, mouse IgG1, V domains shown)
VH: EVKLVESGGGLVKPGGSLKLSCAASGFTFSNYAMSWVRQTPEKRLEWVASISGGGDTYYPDSVKGRFTISRDNVRNILYLQMSSLRSEDTAMYYCATSLENYAMDYWGQGTSITVSS
VL: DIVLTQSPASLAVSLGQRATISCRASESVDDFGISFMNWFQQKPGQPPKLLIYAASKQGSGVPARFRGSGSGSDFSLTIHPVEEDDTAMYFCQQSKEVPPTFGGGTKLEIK
notes: also called muMabJC18; MabJC18
The EC50 (read off the curve) is the concentration needed to bring the measured effect to its halfway point. A word on the Kd: it is the equilibrium constant for the complex coming apart. Usually koff stands for a measure of how fast the partners let go of each other. What is called kon is a measure of how fast the partners come together. For the molecule B1, the “EC50 (read off the curve)” value in experiment [1] was around 3 ng/mL. In addition, the binding result in experiment [2] and in experiment [3] was “no binding (tested: 5 ug/ml)” each time. Also, the figures for the Kd in experiment [4], in experiment [5] and in experiment [6] were 0.65 nM, 1.5 nM and 0.72 nM, respectively. The koff in experiment [4] was 0.00207 s⁻¹; in experiment [5], 0.00254 s⁻¹; in experiment [6], 0.00275 s⁻¹. Further, the association rate constant (kon) in experiment [4] was 3.18e+06 M⁻¹ s⁻¹; in experiment [5], 1.74e+06 M⁻¹ s⁻¹; in experiment [6], 3.8e+06 M⁻¹ s⁻¹.

The values are drawn from US20130071921A1 (Pfizer, published 2013).
